{"source": "paper doi:10.1101/2022.10.04.510906", "about": "(bioRxiv, 2022)", "binders": {"B1": {"name": "V/A-ATPase F subunit (natural protein, Thermus thermophilus)", "chain": "MAVIADPETAQGFRLAGLEGYGASSAEEAQSLLETLVERGGYALVAVDEALLPDPERAVERLMRGRDLPVLLPIAGLKEAFQGHDVEGYMRELVRKTIGFDIKL"}}, "biological_target": "T1, V/A-ATPase D subunit (Thermus thermophilus, UniProt O87880 1-223)", "T1 sequence": "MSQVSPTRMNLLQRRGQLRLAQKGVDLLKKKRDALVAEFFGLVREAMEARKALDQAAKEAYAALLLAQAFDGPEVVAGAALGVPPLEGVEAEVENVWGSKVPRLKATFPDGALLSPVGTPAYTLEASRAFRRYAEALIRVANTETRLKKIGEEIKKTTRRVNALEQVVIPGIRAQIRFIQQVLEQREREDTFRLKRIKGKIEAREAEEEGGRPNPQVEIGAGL", "experiment": "cryo-EM structure", "data": [{"binder": "B1", "values": [{"measurement": "binding result", "value": "binds"}]}]}
